Data from the RNAGym collection of RNA variant scans (doi:10.1093/molbev/msab373).

B1: Azoarcus group I ribozyme (parent)
chain: GUGCCUUGCGCCGGGAAACCACGCAAGGGAUGGUGUCAAAUUCGGCGAAACCUAAGCGCCCGCCCGGGCGUAUGGCAACGCCGAGCCAAGCUUCGGCGCCUGCGCCGAUGAAGGUGUAGAGACUAGACGGCACCCACCUAAGGCAAACGCUAUGGUGAAGGCAUAGUCCAGGGAGUGGCGAAAGUCACACAAACCGG

Variants of: B1
Experiment: reverse-splicing fitness (ratio to wild type); higher = more active; in vitro selection; Mg2+ level not given
Summary of the method: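 An in vitro group I ribozyme library with randomized positions was T7-transcribed and gel-purified. In triplicate, 10 pmol RNA in EPPS pH 7.5 was reacted with 50 pmoles of a 30-nt RNA substrate for 1 h at 37 °C across several added MgCl2 levels (1–48 mM), then stopped with EDTA. Products were reverse transcribed from a substrate-complementary primer, PCR-amplified and sequenced (HiSeq 4000). Fitness is a variant's read proportion after selection over that before, normalised to wild type.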

Variant	reverse-splicing fitness
GUGCCUUGCGCCGGGAAACCACGCAAGGGAUGGUGUCAAAUUCGGCGAAACCUAAGCGCCCGCCCGGGCGUAUGGCAACGCCGAGCCAAGCUUCGGCGCCUGCGCCGAUGCAGGUGUAGGGACUAGACGGCACCCACCUAAGGCAAACGAUAUGGUGAAGGCAUAGUCCAGGGAGUGGCGAAAGUCACACAAACCGG [A111C A120G C150A]	0.0211
GUGCCUUGCGCCGGGAAACCACGCAAGGGAUGGUGUCAAAUUCGGCGAAACCUAAGCGCCCGCCCGGGCGUAUGGCAACGCCGAGCCAAGCUUCGGCGCCUGCGCCGAUGCAGGUGUAGGGACUAGACGGCACCCACCUAAGGCUAACGCUAUGGUGAAGGCAUAGUCUAGGGAGAGGCGAAAGUCACACAAACCGG [A111C A120G A145U C169U U176A]	0.042
GUGCCUUGCGCCGGGAAACCACGCAAGGGAUGGUGUCAAAUUCGGCGAAACCUAAGCGCCCGCCCGGGCGUAUGGCAACGCCGAGCCAAGCUUCGGCGCCUGCGCCGAUGCAGGUGUAGGGACUAGACGGCACCCACCUAAGGCUAACGCUAUGGUGAAGGCAUAGUCUAGGGAGGGGCGAAAGUCACACAAACCGG [A111C A120G A145U C169U U176G]	0.00716
GUGCCUUGCGCCGGGAAACCACGCAAGGGAUGGUGUCAAAUUCGGCGAAACCUAAGCGCCCGCCCGGGCGUAUGGCAACGCCGAGCCAAGCUUCGGCGCCUGCGCCGAUGCAGGUGUAGGGACUAGACGGCACCCACCUAAGGCUAACGCUAUGGUGAAGGCAUAGUCUAGGGAGCGGCGAAAGUCACACAAACCGG [A111C A120G A145U C169U U176C]	0.0424
GUGCCUUGCGCCGGGAAACCACGCAAGGGAUGGUGUCAAAUUCGGCGAAACCUAAGCGCCCGCCCGGGCGUAUGGCAACGCCGAGCCAAGCUUCGGCGCCUGCGCCGAUGCAGGUGUAGGGACUAGACGGCACCCACCUAAGGCAAACGAUAUGGUGAAGGCAUAGUCAAGGGAGCGGCGAAAGUCACACAAACCGG [A111C A120G C150A C169A U176C]	0.023
GUGCCUUGCGCCGGGAAACCACGCAAGGGAUGGUGUCAAAUUCGGCGAAACCUAAGCGCCCGCCCGGGCGUAUGGCAACGCCGAGCCAAGCUUCGGCGCCUGCGCCGAUGCAGGUGUAGGGACUAGACGGCACCCACCUAAGGCAAACGAUAUGGUGAAGGCAUAGUCAAGGGAGAGGCGAAAGUCACACAAACCGG [A111C A120G C150A C169A U176A]	0.0174
GUGCCUUGCGCCGGGAAACCACGCAAGGGAUGGUGUCAAAUUCGGCGAAACCUAAGCGCCCGCCCGGGCGUAUGGCAACGCCGAGCCAAGCUUCGGCGCCUGCGCCGAUGCAGGUGUAGGGACUAGACGGCACCCACCUAAGGCAAACGAUAUGGUGAAGGCAUAGUCAAGGGAGGGGCGAAAGUCACACAAACCGG [A111C A120G C150A C169A U176G]	0.00594
GUGCCUUGCGCCGGGAAACCACGCAAGGGAUGGUGUCAAAUUCGGCGAAACCUAAGCGCCCGCCCGGGCGUAUGGCAACGCCGAGCCAAGCUUCGGCGCCUGCGCCGAUGCAGGUGUAGGGACUAGACGGCACCCACCUAAGGCUAACGCUAUGGUGAAGGCAUAGUCCAGGGAGCGGCGAAAGUCACACAAACCGG [A111C A120G A145U U176C]	0.0406
GUGCCUUGCGCCGGGAAACCACGCAAGGGAUGGUGUCAAAUUCGGCGAAACCUAAGCGCCCGCCCGGGCGUAUGGCAACGCCGAGCCAAGCUUCGGCGCCUGCGCCGAUGCAGGUGUAGGGACUAGACGGCACCCACCUAAGGCUAACGCUAUGGUGAAGGCAUAGUCCAGGGAGAGGCGAAAGUCACACAAACCGG [A111C A120G A145U U176A]	0.0392
GUGCCUUGCGCCGGGAAACCACGCAAGGGAUGGUGUCAAAUUCGGCGAAACCUAAGCGCCCGCCCGGGCGUAUGGCAACGCCGAGCCAAGCUUCGGCGCCUGCGCCGAUGCAGGUGUAGGGACUAGACGGCACCCACCUAAGGCUAACGCUAUGGUGAAGGCAUAGUCCAGGGAGGGGCGAAAGUCACACAAACCGG [A111C A120G A145U U176G]	0.00568
GUGCCUUGCGCCGGGAAACCACGCAAGGGAUGGUGUCAAAUUCGGCGAAACCUAAGCGCCCGCCCGGGCGUAUGGCAACGCCGAGCCAAGCUUCGGCGCCUGCGCCGAUGCAGGUGUAGGGACUAGACGGCACCCACCUAAGGCAAACGAUAUGGUGAAGGCAUAGUCUAGGGAGAGGCGAAAGUCACACAAACCGG [A111C A120G C150A C169U U176A]	0.0211
GUGCCUUGCGCCGGGAAACCACGCAAGGGAUGGUGUCAAAUUCGGCGAAACCUAAGCGCCCGCCCGGGCGUAUGGCAACGCCGAGCCAAGCUUCGGCGCCUGCGCCGAUGCAGGUGUAGGGACUAGACGGCACCCACCUAAGGCAAACGAUAUGGUGAAGGCAUAGUCUAGGGAGGGGCGAAAGUCACACAAACCGG [A111C A120G C150A C169U U176G]	0.0056
GUGCCUUGCGCCGGGAAACCACGCAAGGGAUGGUGUCAAAUUCGGCGAAACCUAAGCGCCCGCCCGGGCGUAUGGCAACGCCGAGCCAAGCUUCGGCGCCUGCGCCGAUGCAGGUGUAGGGACUAGACGGCACCCACCUAAGGCAAACGAUAUGGUGAAGGCAUAGUCUAGGGAGCGGCGAAAGUCACACAAACCGG [A111C A120G C150A C169U U176C]	0.024
GUGCCUUGCGCCGGGAAACCACGCAAGGGAUGGUGUCAAAUUCGGCGAAACCUAAGCGCCCGCCCGGGCGUAUGGCAACGCCGAGCCAAGCUUCGGCGCCUGCGCCGAUGCAGGUGUAGGGACUAGACGGCACCCACCUAAGGCUAACGUUAUGGUGAAGGCAUAGUCCAGGGAGGGGCGAAAGUCACACAAACCGG [A111C A120G A145U C150U U176G]	0.00526
GUGCCUUGCGCCGGGAAACCACGCAAGGGAUGGUGUCAAAUUCGGCGAAACCUAAGCGCCCGCCCGGGCGUAUGGCAACGCCGAGCCAAGCUUCGGCGCCUGCGCCGAUGCAGGUGUAGGGACUAGACGGCACCCACCUAAGGCUAACGUUAUGGUGAAGGCAUAGUCCAGGGAGCGGCGAAAGUCACACAAACCGG [A111C A120G A145U C150U U176C]	0.0338
